The experiment has as its target dCas9(C)-FKBP-2×NLS-VP64 (split-4, N863A) (Streptococcus pyogenes). The experiment is described as follows: cell-based or functional assay.

Take “dCas9(N)-FRB-2×NES (split-4, D10A) (from UniProt Q99ZW2 1-535; P42345 2021-2113; Q05397 518-525)”: the ASCL1 mRNA by qPCR, +rapamycin/-rapamycin ratio was found to be 77; the IL1RN mRNA by qPCR, +rapamycin/-rapamycin ratio was found to be 649; the MYOD1 mRNA by qPCR, +rapamycin/-rapamycin ratio is 29.
